According to patent US9308238B2, “Compositions and methods for modulating EMT and uses thereof” (Whitehead Institute for Biomedical Research, priority 2010, dated 2016):

B1: SFRP1: Recombinant human SFRP1 protein (R&D Systems), secreted decoy receptor binding canonical and non-canonical Wnt ligands (protein, UniProt Q8N474 32-314, looked up)
Secreted frizzled-related …: SEYDYVSFQSDIGPYQSGRFYTKPPQCVDIPADLRLCHNVGYKKMVLPNLLEHETMAEVKQQASSWVPLLNKNCHAGTQVFLCSLFAPVCLDRPIYPCRWLCEAVRDSCEPVMQFFGFYWPEMLKCDKFPEGDVCIAMTPPNATEASKPQGTTVCPPCDNELKSEAIIEHLCASEFALRMKIKEVKKENGDKKIVPKKKKPLKLGPIKKKDLKKLVLYLKNGADCPCHQLDNLSHHFLIMGRKVKSQYLLTAIHKWDKKNKEFKNFMKKMKNHECPTFQSVFK
B2: BMP4: Recombinant BMP4 protein obtained from Stemgent (protein, UniProt P12644 293-408, looked up)
Bone morphogenetic protein 4: SPKHHSQRARKKNKNCRRHSLYVDFSDVGWNDWIVAPPGYQAFYCHGDCPFPLADHLNSTNHAIVQTLVNSVNSSIPKACCVPTELSAISMLYLDEYDKVVLKNYQEMVVEGCGCR

Columns and labels:
[1] = test system: MSP-RAS primary tumorspheres; assay: Flow cytometry of CD44/CD24 in MSP-RAS primary tumorspheres; assay type: cell-based, human; details: control tumorspheres 6.4%
Description: FIGS. 4A-4G. Autocrine Signaling controls tumorigenicity and metastasis of MSP-RAS cells. (FIG. 4A) Migration assay: RAS-transformed MSP (MSP-RAS) were seeded in Boyden Chamber migration assays and recombinant SFRP1 (1 μg/ml) and BMP4 protein (0.5 μg/ml) were added; *control vs. single treatment, p<1×10^−8, **single vs. double treatment with SFRP1 and BMP4 (S+B), p<1×10^−4, n=3. […] (FIG. 4E) Lung metastasis: fluorescence microscopy images of the major left lung lobe showing GFP-expressing metastatic nodules and quantification of the number of lung surface metastases; *control vs. SFRP1 treatment, p<0.05, **SFRP1 vs. BMP4 or double treatment (S+B), p<0.05, n=5 mice/group. (FIG. 4F) Liver metastasis: fluorescence microscopy images of the liver surface showing GFP-expressing micro-metastatic nodules after implantation of cells as described in (D) and quantification: 5 fields of liver surface were counted per mouse, *control vs. single treatment, p<0.05, **single vs. double treatment (S+B), p<0.05, n=5 mice/group. […]
Fluorescent activated cell sorting (FACS) and flow cytometry. […] Samples were sorted on a BD FACSAria SORP and analyzed on a BD LSRII using BD FACSDiva Software (BD Biosciences).

[2] = test system: MSP-RAS cells; assay: Orthotopic tumor formation and metastasis after ex vivo treatment of MSP-RAS tumorspheres; assay type: in vivo, mice; details: for reduction in lung metastases / reduction of metastatic foci in the liver: foci normalized by primary tumor weight, ex vivo treatment; for reduction of tumor weight / reduction of metastatic foci in the liver: on average
Description: FIGS. 4A-4G. Autocrine Signaling controls tumorigenicity and metastasis of MSP-RAS cells. (FIG. 4A) Migration assay: RAS-transformed MSP (MSP-RAS) were seeded in Boyden Chamber migration assays and recombinant SFRP1 (1 μg/ml) and BMP4 protein (0.5 μg/ml) were added; *control vs. single treatment, p<1×10^−8, **single vs. double treatment with SFRP1 and BMP4 (S+B), p<1×10^−4, n=3. (FIG. 4B) Tumorsphere assay: SFRP1 (1 μg/ml) and BMP4 protein (0.5 μg/ml) were added daily during primary sphere formation (5 days), spheres were dispersed and seeded for secondary sphere formation in the absence of further treatment; #control primary vs. secondary sphere formation, p=0.001; *control vs. single treatment, p<1×10^−4, **single vs. double treatment with SFRP1 and BMP4 (S+B), p<0.01, n(tumorspheres)/1000 cells, n=6. (FIG. 4C) Flow cytometry: CD44 and CD24 cell-surface markers of dissociated primary tumorspheres as described in (B). (FIG. 4D) Orthotopic tumor formation after ex vivo treatment during tumorsphere formation: primary tumorspheres as generated in (B) were pooled, dissociated and 1.0×10^5 cells were implanted in the fat pads of mice; shown are tumor weight and incidence, *indicates absence of tumor, n=5 mice/group. (FIG. 4E) Lung metastasis: fluorescence microscopy images of the major left lung lobe showing GFP-expressing metastatic nodules and quantification of the number of lung surface metastases; *control vs. SFRP1 treatment, p<0.05, **SFRP1 vs. BMP4 or double treatment (S+B), p<0.05, n=5 mice/group. (FIG. 4F) Liver metastasis: fluorescence microscopy images of the liver surface showing GFP-expressing micro-metastatic nodules after implantation of cells as described in (D) and quantification: 5 fields of liver surface were counted per mouse, *control vs. single treatment, p<0.05, **single vs. double treatment (S+B), p<0.05, n=5 mice/group. (FIG. 4G) Tumorigenicity assay: MSP-RAS cells suspended in PBS containing SFRP1 (1 μg/ml), BMP4 (0.5 μg/ml), and a combination of both (S+B) were implanted subcutaneously in mice at indicated cell numbers. In addition, 20 μl of PBS or PBS with proteins at indicated doses was injected peri-tumorally at 1, 2, 3 and 7 days after implanting the MSP-RAS cells.
We also wished to determine whether in vitro exposure to SFRP1 and BMP4 influenced subsequent in vivo behavior of MSP-RAS cells. For this purpose, we prepared single-cell suspensions from primary control MSP-RAS tumorspheres or from the residual tumorspheres that had formed during a 5 day in vitro treatment with SFRP1, BMP4 or a combination of both. Following injection of these populations into the mammary fat pads of mice, we noted that the tumors that originated from mammospheres of MSP-RAS cells that had been exposed ex vivo to either SFRP1, BMP4 or a combination of both were reduced in weight by 3-fold on average (FIG. 4D). However, we only observed a modest reduction in tumor incidence for the BMP4 and combination-treated groups (30%, FIG. 4D).
Animal studies. All research involving animals complied with protocols approved by the MIT Committee on Animal Care. For tumorigenicity studies, indicated numbers of cells in 100 μL of Matrigel (BD Biosciences) diluted 1:4 in PBS were injected subcutaneously in the left and right flanks of age-matched female nude (nu/nu) mice. Mice were sacrificed and necropsied after 10 weeks. For orthotopic injections, 1×10^5 cells suspended in PBS were injected into each of the two inguinal mammary glands of age-matched female NOD-SCID mouse. Mice were sacrificed after 10 weeks or when tumors reached a diameter >1 cm. Lung surface metastases were counted using a fluorescent microscope within 3 hr of specimen isolation.

[3] = test system: HTwist cells; assay: Mammosphere assay, HTwist cells; assay type: cell-based, human; details: for reduction in sphere-forming efficiency, primary mammosphere formation: single vs combined proteins, daily for 5 days (FIG. 10C)
Description: FIGS. 10A-10E. […] (FIG. 10E) Mammosphere Assay: HTwist and MSP were treated daily during mammosphere formation (5 days) with BMP4 (0.5 μg/ml), SB431542 (10 μM) or a combination of both, n(mammospheres)/1000 cells, n=6.
Mammosphere and tumorsphere assay. Assays were performed as previously described with modifications (Dontu et al., 2003): 1000 cells/well were seeded in 96-well ultra-low adhesion plates (Corning) in MEGM medium containing 1.3% methylcellulose (Stem Cell Technologies) supplemented with 20 ng/ml EGF, 10 ng/ml bFGF (both Sigma) and B27 (Gibco). Primary spheres were dissociated by trypsinization and replated for secondary sphere formation after a period of 5-7 days.

[4] = 5 day ex vivo treatment, mammary fat pad injection

Molecule	CD24-positive cells in primary tumorspheres [1]	reduction in lung metastases [2]	reduction of tumor weight [2, 4]	reduction of metastatic foci in the liver [2]	reduction of primary mammosphere number ([3]; added daily for 5 days (FIG. 3D))	reduction in sphere-forming efficiency, primary mammosphere formation [3]	reduction of secondary sphere formation ([3]; treated during primary sphere formation only)	reduction in tumor incidence [2, 4]
B1	40%	2 fold	3 fold	2.5 fold	50%	40%	90%	–
B2	40%	7.5 fold	3 fold	5 fold	–	64%	–	30%
